Legend:
GST-SHOX2 [1] = target: T1, GST-SHOX2 (UniProt O60902 1-331); test: EMSA
GST-SHOX2 [2] = target: T1, GST-SHOX2; test: competition

T1 sequence (O60902 whole entry): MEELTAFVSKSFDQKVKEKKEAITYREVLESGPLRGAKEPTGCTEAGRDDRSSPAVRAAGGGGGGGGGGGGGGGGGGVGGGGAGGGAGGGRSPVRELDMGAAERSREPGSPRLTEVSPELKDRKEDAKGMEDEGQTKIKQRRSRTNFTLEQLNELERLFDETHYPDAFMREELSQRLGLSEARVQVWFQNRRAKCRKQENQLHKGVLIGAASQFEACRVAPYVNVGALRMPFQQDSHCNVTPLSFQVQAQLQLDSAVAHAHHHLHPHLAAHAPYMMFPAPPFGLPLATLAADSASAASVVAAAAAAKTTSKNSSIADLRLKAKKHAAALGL

B1: BMP4 EMSA oligonucleotide (34 bp conserved promoter motif) (dsDNA)
DNA 1: GGGTCTCATTATATTCAAATATTCCTTTTAGGAGCCA
DNA 2: GGGTGGCTCCTAAAAGGAATATTTGAATATAATGAGA
**Q.** Does B1 bind (GST-SHOX2 [1])?
**A.** binds

B2: BMP4 oligonucleotide, unlabelled homologous competitor (dsDNA)
DNA 1: B1 DNA 1
DNA 2: B1 DNA 2
**Q.** Does B2 bind (GST-SHOX2 [2])?
**A.** binds
